Measured values reported in patent US20240044903A1 (KOZA NOVEL MATERIALS KOREA, published 2024).

T1: human cytosolic TK1 in CEM TK1+ cell extract (human, UniProt P04183 2-234)
T1 construct: Cell extract with 25 ug (also printed as 25 pg) of protein; also called wild-type of CEM cell extract; cytosolic TK1 from human (CEM+)
T1 sequence: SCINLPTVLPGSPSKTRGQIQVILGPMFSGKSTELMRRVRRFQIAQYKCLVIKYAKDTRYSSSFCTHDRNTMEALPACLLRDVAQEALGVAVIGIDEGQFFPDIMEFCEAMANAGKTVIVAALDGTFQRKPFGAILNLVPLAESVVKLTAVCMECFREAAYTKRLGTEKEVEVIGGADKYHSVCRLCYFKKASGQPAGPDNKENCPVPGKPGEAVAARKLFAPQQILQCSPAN

T2: recombinant human TK1 (human, UniProt P04183 1-234, limits assumed)
T2 construct: also called rHTK1; human recombinant TK1
T2 sequence: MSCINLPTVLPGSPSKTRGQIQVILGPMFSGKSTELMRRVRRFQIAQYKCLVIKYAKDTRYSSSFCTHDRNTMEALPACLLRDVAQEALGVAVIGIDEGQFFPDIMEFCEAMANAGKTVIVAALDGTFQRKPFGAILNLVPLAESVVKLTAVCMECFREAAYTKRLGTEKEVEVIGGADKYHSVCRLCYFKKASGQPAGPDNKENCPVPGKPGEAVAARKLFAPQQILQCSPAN

T3: recombinant equine TK1 (horse, UniProt P04183 2-234 (human entry))
T3 construct: also called rETK1; horse TK1
T3 chain: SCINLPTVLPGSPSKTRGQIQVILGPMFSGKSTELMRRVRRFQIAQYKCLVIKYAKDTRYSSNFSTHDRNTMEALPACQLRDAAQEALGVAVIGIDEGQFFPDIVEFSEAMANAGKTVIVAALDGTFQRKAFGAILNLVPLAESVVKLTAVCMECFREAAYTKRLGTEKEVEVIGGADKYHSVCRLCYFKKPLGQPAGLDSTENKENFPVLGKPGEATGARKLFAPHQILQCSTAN

T4: recombinant feline TK1 (cat, UniProt P04183 2-234 (human entry))
T4 construct: also called rFTK1; cat TK1
T4 chain: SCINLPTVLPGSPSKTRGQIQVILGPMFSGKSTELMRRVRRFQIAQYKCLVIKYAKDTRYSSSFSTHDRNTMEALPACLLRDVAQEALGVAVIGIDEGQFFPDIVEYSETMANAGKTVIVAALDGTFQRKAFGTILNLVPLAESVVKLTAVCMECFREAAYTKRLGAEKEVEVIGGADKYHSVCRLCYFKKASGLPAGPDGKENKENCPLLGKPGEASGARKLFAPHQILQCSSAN

T5: recombinant canine TK1 (dog)
T5 construct: also called rCTK1; recombinant dog TK1
T5 chain: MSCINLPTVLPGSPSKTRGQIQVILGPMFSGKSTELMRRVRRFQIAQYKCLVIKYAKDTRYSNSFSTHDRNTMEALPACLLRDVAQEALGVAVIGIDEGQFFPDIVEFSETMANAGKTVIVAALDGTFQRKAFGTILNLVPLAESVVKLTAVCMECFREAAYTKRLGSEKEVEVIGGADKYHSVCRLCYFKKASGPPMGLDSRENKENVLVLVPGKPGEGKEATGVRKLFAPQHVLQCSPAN


Assays:
[1] = target: T1, human cytosolic TK1 in CEM TK1+ cell …; test: Western blot after SDS-PAGE of denatured cell extract
Description: (§1) FIGS. 3A-3D show dot blot and Western blot analysis. Recombinant TK1 protein from canine (rCTK1), feline (rFTK1), equine (rETK1) and human (rHTK1) at concentration ranging from 20-0.6 ng was blotted. The membranes were developed with (FIG. 3A) monoclonal antibody produced against active site mAb1 ([…], diluted in TBS containing 3% of non-fat dry milk) and (FIG. 3B) monoclonal antibody produced against C terminal region mAb2 ([…], diluted in TBS containing 3% of non-fat dry milk). Recombinant dog TK1, human TK1 at concentration (10, 5 and 2.5 ng) and human TK1 positive cell extract containing 25 μg of protein (CEM TK1+) and TK1 negative cell extract containing 25 µg of protein (CEM TK1−) were electrophoresed using SDS-PAGE, followed by Western blots with […] of mAb1 diluted in TBS containing 3% of non-fat dry milk (FIG. 3C). Western blot results with […] of mAb2 diluted in TBS containing 3% of non-fat dry milk mAb 2 (FIG. 3D).
(§2) Western blot assay: recombinant canine TK1, human recombinant TK1 ([…]) and cytosolic TK1 from human (CEM+/−) containing 25 µg of proteins were diluted in a denaturing sample buffer, boiled, and loaded onto a 12% polyacrylamide gel. The gel was electrophoresed in SDS running buffer. […]

recombinant human TK1 [2] = target: T2, recombinant human TK1; test: ECL dot blot with recombinant TK1, 20 to 0.6 ng
Description: as §1
(§3) ECL dot blot assay was carried out as described previously (He et al., 2000). In brief, 3 μl of recombinant enzyme at varying concentrations ranged from 20 to 0.6 ng was applied on nitrocellulose membrane (Thermo scientific, Germany). The membrane was blocked in non-fat dry milk 10% (Bio-Rad) for 1 h and then incubated with the hybridoma supernatants or antisera and incubated for overnight at 4° C. Then after the membrane was washed and incubated with a biotinylated second antibody conjugated with horseradish peroxidase directed against mouse (GE healthcare, UK) for 1 h at room temperature. Followed by adding ECL reagent. Finally, the signal was detected by ChemiDoc Imaging System BIO-RAD.

recombinant equine TK1 [3] = target: T3, recombinant equine TK1; test: ECL dot blot with recombinant TK1, 20 to 0.6 ng
Description: as §1, §3

recombinant feline TK1 [4] = target: T4, recombinant feline TK1; test: ECL dot blot with recombinant TK1, 20 to 0.6 ng
Description: as §1, §3

recombinant canine TK1 = target: T5, recombinant canine TK1; test: Quartz Crystal Microbalance, antibody immobilized, recombinant canine TK1 injected
Description: The kinetics of the interaction between the two monoclonal antibodies, mAb1 and mAb2 (150 kDa), and canine recombinant TK1 was measured by a Quartz Crystal Microbalance (QCM) technology. To characterize binding interactions, the monoclonal antibody was immobilized on the sensor surface and the sample containing recombinant canine TK1 was injected over the sensor surface. […] The signal output is given in frequency (Hz) and is directly related to changes in mass on the sensor surface.

recombinant human TK1 [5] = target: T2, recombinant human TK1; test: ECL dot blot with recombinant TK1
Description: as §1, §3

recombinant equine TK1 [6] = target: T3, recombinant equine TK1; test: ECL dot blot with recombinant TK1
Description: as §1, §3

recombinant feline TK1 [7] = target: T4, recombinant feline TK1; test: ECL dot blot with recombinant TK1
Description: as §1, §3

[8] = target: T1, human cytosolic TK1 in CEM TK1+ cell …; test: Western blot after SDS-PAGE, mAb2 at 2 pg/ml as printed
Description: as §1, §2

Row | binding result [1] | binding result (recombinant human TK1 [2]) | binding result (recombinant equine TK1 [3]) | binding result (recombinant feline TK1 [4]) | Kd (recombinant canine TK1) [nM] | koff (recombinant canine TK1) [s⁻¹] | kon (recombinant canine TK1) [M⁻¹ s⁻¹] | binding result (recombinant human TK1 [5]) | binding result (recombinant equine TK1 [6]) | binding result (recombinant feline TK1 [7]) | binding result [8] | Binder
1 | binds | binds | binds | binds | 0.3 to 0.75 | 6.1e-05 to 0.00023 | 240000 to 300000 | – | – | – | – | CTK1-1 (mAb1) (antibody, mouse IgG1, kappa, V domains shown, Mouse monoclonal IgG1-kappa from hybridoma sub-clone 9C8, raised against the active site peptide (amino acids 161-183) of human TK1; also called 9C8) VH: EVKLVESGGGLVQPGDSLRLSCATSGFTFNDHYMNWVRQPPGKALEWVAFIGNKAYGYKIEYNSSVKGRFTISRDDSQSFLYLQLNTLRSEDSATYYCARDGAFIYWGQGTVVTVSA VL: DVVMTQTPLSLPVSLGDQASISCRSSQSLVHSNGNTYLHWYLQKPGQSPKLLIYKVSNRFSGVPDRFSGSGSGSDFTLKISRVEAEDLGVYFCSQSTHIPYTFGGGTELEIRR
2 | – | – | – | – | 0.2 to 0.4 | 0.00011 to 0.00019 | 500000 to 540000 | no binding (tested: 20 to 0.6 ng) | no binding (tested: 20 to 0.6 ng) | no binding (tested: 20 to 0.6 ng) | no binding | CTK1-2 (mAb2) (antibody, mouse IgG2b, kappa, V domains shown, Mouse monoclonal IgG2b-kappa from hybridoma sub-clone 3H11, raised against the C-terminal peptide (amino acids 211-225) of dog TK1; also called 3H11) VH: EVQLQQSGAELVKPGASVKLSCTASGFNIKDTYMHWVKQRPEQGLEWIGRIDPANGNTKYDPKFQGKATITPDTSSTTAYLQLSSLTSEDTAVYYCARNRAYYGNYYAMDYWGQGTSVTVSS VL: DIVMTQSPSSLTVTAGEKVTMSCKSSQSLLNSRNQKNYLTWYQQKPGQPPKLLIYWASTRESGVPDRFTGSGFGTDFTLAISSVQAEDLAVYYCQNDYSYPFTFGSGTKLEIKR
